According to paper PMC11457148:

Molecular target: Isu1 (mature, residues 36-165) with the C-terminal His tag (S. cerevisiae) (UniProt Q03020)
Test: native MS

- stoichiometry N: 1
B1: Hsc20 without tag, co-expressed with Isu1 and Ssq1* (natural protein)
chain: TSTFYELFPKTFPKKLPIWTIDQSRLRKEYRQLQAQHHPDMAQQGSEQSSTLNQAYHTLKDPLRRSQYMLKLLRNIDLTQEQTSNEVTTSDPQLLLKVLDIHDELSQMDDEAGVKLLEKQNKERIQDIEAQLGQCYNDKDYAAAVKLTVELKYWYNLAKAFKDWAPGKQLEMNH
